Test results published in patent publication US20060286609A1 (BIOCHECK, published 2006).
Positions count from the first letter of the chain named.

B1: rabbit monoclonal anti-mouse Id1, clone #BCH-1/#37-2 (antibody, V domains shown)
VH: QSVEESGGRLVTPGTPLTLTCKVSGFDINSYAMDWFRQAPGKGLEWIGMMSTRGNTYYTSWAKGRFTISKTSSTTVDLKMTSLTTEDTATYFCARGGLWGPGTLVTVSS
VL: RVLTQTASPVSAAVGGTVTINCQASQSVYNGNRLGWYQLKPGQSPKELIHDASTLASGVPSRFRGSGSGTQFTLTINDVQCDDAATYYCVGSYACSTGDCNVFGGGTEVVVK
notes: Rabbit IgG from hybridoma, Protein G purified; also called m Id1 MoAb 37-2; Rabbit Monoclonal Anti-Mouse Id1 (#37-2)

Columns and labels:
[1] = target: T1, Human Id4: Histidine (human, UniProt P47928 1-161, limits assumed); test: ELISA, coated antigen; relative to human Id1
T1 construct: E. coli fusion protein (vector pGW07); also called h-Id4: His; not shown: His-tag
T1 sequence (looked up): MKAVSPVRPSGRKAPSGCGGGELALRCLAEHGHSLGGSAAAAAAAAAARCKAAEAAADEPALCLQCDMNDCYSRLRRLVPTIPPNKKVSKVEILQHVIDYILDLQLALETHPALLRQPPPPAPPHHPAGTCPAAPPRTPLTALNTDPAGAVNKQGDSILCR

[2] = target: T2, Mouse Id2: Histidine (mouse, UniProt P41136 1-134, limits assumed); test: ELISA, coated antigen; relative to human Id1
T2 construct: E. coli fusion protein (vector pGW07); also called m-Id2: His; not shown: His-tag
T2 sequence (looked up): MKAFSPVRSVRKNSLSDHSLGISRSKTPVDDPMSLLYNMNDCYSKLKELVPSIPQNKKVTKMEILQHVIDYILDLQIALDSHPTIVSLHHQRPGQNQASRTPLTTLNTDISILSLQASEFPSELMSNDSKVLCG

[3] = target: T3, Human Id2: Histidine (human, UniProt Q02363 1-134, limits assumed); test: ELISA, coated antigen; relative to human Id1
T3 construct: E. coli fusion protein (vector pGW07); also called h-Id2: His; not shown: His-tag
T3 sequence (looked up): T2 sequence (looked up) with T60S, V131A

[4] = target: T4, Mouse Id3: Histidine (mouse, UniProt P41133 1-119, limits assumed); test: ELISA, coated antigen; relative to human Id1
T4 construct: E. coli fusion protein (vector pGW07); also called m-Id3: His; not shown: His-tag
T4 sequence (looked up): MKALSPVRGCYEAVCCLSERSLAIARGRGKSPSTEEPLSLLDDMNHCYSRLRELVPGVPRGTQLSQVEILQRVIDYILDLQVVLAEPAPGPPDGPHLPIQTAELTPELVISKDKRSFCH

[5] = target: T5, Human Id3: Histidine (human, UniProt Q02535 1-119, limits assumed); test: ELISA, coated antigen; relative to human Id1
T5 construct: E. coli fusion protein (vector pGW07); also called h-Id3: His; not shown: His-tag
T5 sequence (looked up): T4 sequence (looked up) with S31G, S33A, T34A, K112N

[6] = target: Human Id1: Histidine (human) (UniProt P41134); test: sandwich ELISA, 5-3-coated wells, human Id1:His 50.0 ng/ml, detected with rabbit polyclonal B-5133-HRP
Human Id1: Histidine (human), sequence (P41134 whole entry): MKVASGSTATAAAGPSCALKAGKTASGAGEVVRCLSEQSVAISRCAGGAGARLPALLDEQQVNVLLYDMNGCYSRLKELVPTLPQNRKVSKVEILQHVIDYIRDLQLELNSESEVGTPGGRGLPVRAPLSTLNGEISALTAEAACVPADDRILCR

[7] = target: Human Id1: Histidine (human) (UniProt P41134); test: ELISA, coated antigen, Ab 10.0 ug/ml
[8] = target: T6, glutathione S-transferase (GST) (UniProt P08515 1-218 = GST); test: ELISA, coated antigen, Ab 2.50 ug/ml
T6 construct: Coated on wells as control for the fusion partner of the immunogen
T6 sequence (P08515 whole entry, the tested form may be a part): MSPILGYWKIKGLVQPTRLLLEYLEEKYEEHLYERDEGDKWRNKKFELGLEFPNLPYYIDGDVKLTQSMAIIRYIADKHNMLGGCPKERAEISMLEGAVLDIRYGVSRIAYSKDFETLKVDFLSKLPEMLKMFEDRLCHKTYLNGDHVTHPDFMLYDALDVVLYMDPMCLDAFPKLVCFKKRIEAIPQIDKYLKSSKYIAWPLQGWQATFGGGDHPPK
Description: (§1) Incubate plates at 2-8° C. overnight (16-24 hours). [0145] 11. Shake off the BSA solution. [0146] 12. Dispense 250 μL of 2.5% sucrose solution into each well. [0147] 13. Incubate plates at 2-8° C. for 4 hours. [0148] 14. Shake off sucrose solution. [0149] 15. Dry in vacuum at room temperature overnight. Screening Method [0150] 1. Dispense 100 μL of antibody diluent, diluted rabbit polyclonal anti-Id1 into appropriate wells. […] 2. Incubate at room temperature with mechanical shaking at 750 rpm for 90 minutes. [0152] 3. Remove the incubation mixture by flicking plate content into an appropriate waste container, followed by rinsing the wells 5 times with distilled water. […] 4. Strike the wells sharply onto absorbent paper or paper towels to remove all residual water droplets. [0154] 5. Dispense 100 μL of Goat Anti-Rabbit IgG-HRP Conjugate Reagent into each well. Gently mix for 5 seconds. [0155] 6. Incubate at room temperature with mechanical shaking at 750 rpm for 90 minutes. […] 7. Repeat procedures 3 and 4. [0157] 8. Dispense 100 μL of TMB Reagent into each well. Gently mix for 5 seconds. [0158] 9. Incubate at room temperature with mechanical shaking at 750 rpm for 20 minutes. [0159] 10. Add 100 μL of Stop Solution (1N HCl) into each well. [0160] 11. Gently mix for 10 seconds to ensure a complete mixing. […] 12. Read optical density (absorbance) at 450 nm. Results from this assay were used to select the rabbit sera with the highest antibodies titer that selectively reacts with mouse Id1 or human Id1 or both.
(§2) A comparison was carried out between the reactivity of the rabbit monoclonal anti-mouse Id1, clone #BCH-1/#37-2, of this invention and the mouse monoclonal anti-mouse/human Id1 from BD Pharmingen with the following antigens prepared in Example 5: mouse Id1:His, human Id1:His, human Id2:His, human Id3:His, and GST. These antigens and protein were used to coat the wells.
(§3) Materials and methods were those described in Example 9 except (a) Pharmingen's mouse monoclonal anti-mouse Id1 was used in addition to the rabbit monoclonal anti-mouse Id1 (Example 10), and (b) goat anti-mouse IgG-HRP conjugate was used to process the wells treated with the Pharmingen monoclonal antibody and polyclonal goat anti-rabbit IgG-HRP conjugate was used to process wells treated with rabbit monoclonal anti-mouse Id1.

[9] = target: T7, Mouse Id1: Histidine (mouse, UniProt P20067-2 1-148); test: ELISA, coated antigen, Ab 2.50 ug/ml
T7 construct: E. coli fusion protein (vector pGW07); also called m-Id1-His; not shown: His-tag
T7 sequence: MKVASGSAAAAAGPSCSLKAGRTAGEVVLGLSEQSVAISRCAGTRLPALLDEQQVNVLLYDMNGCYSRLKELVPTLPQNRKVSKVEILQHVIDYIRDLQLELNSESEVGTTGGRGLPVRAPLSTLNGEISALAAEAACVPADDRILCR
Description: as §1, §2, §3

[10] = target: T3, Human Id2: Histidine; test: ELISA, coated antigen, Ab 2.50 ug/ml
Description: as §1, §2, §3

[11] = target: T5, Human Id3: Histidine; test: ELISA, coated antigen, Ab 2.50 ug/ml
Description: as §1, §2, §3

Molecule	Cross-reactivity (%) [1]	Cross-reactivity (%) [2]	Cross-reactivity (%) [3]	Cross-reactivity (%) [4]	Cross-reactivity (%) [5]	A450 [6]	A450 [7]	A450 [8]	A450 [9]	A450 [10]	A450 [11]
rabbit monoclonal anti-human Id1, clone #BCH-2/#5-3 (antibody)	< 1%	< 1%	< 1%	< 1%	< 1%	3.15 A450					
B1							0.194 A450	0.068 A450	3.16 A450	0.07 A450	0.069 A450
